In patent publication US20210063414A1, “METHODS FOR PREVENTING AND/OR TREATING BONE LOSS CONDITIONS BY MODULATING IRISIN” (Dana-Farber Cancer Institute, Inc., priority 2018, published 2021):

What was measured:
[1] = target: T1, MLO-Y4 cell surface proteins (Mus musculus, UniProt P52825); experiment: Crosslinking/co-immunoprecipitation/mass spectrometry (TMT quantitative proteomics) to identify irisin receptors; type: binding; settings: co-precipitated protein Cpt2 (CPT2_MOUSE)
T1 construct: endogenous in cells; host or cells: MLO-Y4
T1 sequence (P52825 26-658): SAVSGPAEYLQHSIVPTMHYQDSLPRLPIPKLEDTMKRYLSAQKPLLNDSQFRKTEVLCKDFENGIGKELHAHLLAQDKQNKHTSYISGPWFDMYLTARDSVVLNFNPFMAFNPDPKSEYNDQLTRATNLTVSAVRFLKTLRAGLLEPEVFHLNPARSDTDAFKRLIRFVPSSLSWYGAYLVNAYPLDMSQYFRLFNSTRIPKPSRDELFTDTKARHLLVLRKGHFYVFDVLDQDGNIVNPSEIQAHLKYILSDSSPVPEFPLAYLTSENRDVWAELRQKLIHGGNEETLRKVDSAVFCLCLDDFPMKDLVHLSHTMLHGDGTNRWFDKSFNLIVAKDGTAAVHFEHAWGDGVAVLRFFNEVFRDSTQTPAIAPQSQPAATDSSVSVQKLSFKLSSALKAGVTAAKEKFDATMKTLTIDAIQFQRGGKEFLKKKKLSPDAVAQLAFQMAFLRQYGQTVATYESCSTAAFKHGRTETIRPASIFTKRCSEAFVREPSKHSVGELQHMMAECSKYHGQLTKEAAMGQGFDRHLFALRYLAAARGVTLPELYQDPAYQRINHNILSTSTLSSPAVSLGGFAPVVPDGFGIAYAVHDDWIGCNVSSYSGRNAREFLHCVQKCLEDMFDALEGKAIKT
How it was run: (§1)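 Mouse MLO-Y4 cells were switched to serum-free FreeStyle medium for 4 h, chilled, then exposed to 10 nM His-tagged irisin (or adipsin as control) for 20 min. Cells were crosslinked with 1.5 mM DTSSP (30 min, ice), and bound proteins were pulled down on Ni-NTA and eluted with 250 mM imidazole. Eluates were separated by SDS-PAGE, trypsin-digested in gel, TMT 6-plex labelled and quantified by MS3-based LC-MS/MS on an Orbitrap Fusion Lumos.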

[2] = target: T2, MLO-Y4 cell surface proteins (Mus musculus, UniProt Q8JZN5); experiment: as above; type: binding; settings: co-precipitated protein Acad9 (ACAD9_MOUSE)
T2 construct: endogenous in cells; host or cells: MLO-Y4
T2 sequence (Q8JZN5 42-625): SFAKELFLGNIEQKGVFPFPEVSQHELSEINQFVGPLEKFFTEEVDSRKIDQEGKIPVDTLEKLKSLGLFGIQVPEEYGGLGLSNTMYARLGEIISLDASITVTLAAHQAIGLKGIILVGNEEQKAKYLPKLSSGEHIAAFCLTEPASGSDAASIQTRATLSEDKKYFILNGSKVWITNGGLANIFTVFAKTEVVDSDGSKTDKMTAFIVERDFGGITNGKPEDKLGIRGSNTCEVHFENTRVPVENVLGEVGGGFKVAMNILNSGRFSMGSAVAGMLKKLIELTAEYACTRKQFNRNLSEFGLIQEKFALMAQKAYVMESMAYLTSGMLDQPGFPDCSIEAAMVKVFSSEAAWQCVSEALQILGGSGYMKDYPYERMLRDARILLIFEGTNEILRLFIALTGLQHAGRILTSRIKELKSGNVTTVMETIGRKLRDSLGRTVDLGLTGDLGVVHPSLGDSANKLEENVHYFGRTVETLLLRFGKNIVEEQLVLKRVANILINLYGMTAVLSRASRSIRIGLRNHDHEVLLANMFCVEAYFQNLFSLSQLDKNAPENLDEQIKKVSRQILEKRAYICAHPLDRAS
How it was run: as §1

- TMT signal-to-noise ratio [1]: 177.54
- TMT signal-to-noise ratio [2]: 127.125
Substance: adipsin
